Drawing on the RNAGym collection of RNA variant scans (doi:10.7554/elife.80360), this text covers self-cleavage for 167 variants.

The labels stand for the following.
B1: HDV Ribozyme (parent)
chain: GGCCGGCAUGGUCCCAGCCUCCUCGCUGGCGCCGGCUGGGCAACAUUCCGAGGGGACCGUCCCCUCGGUAAUGGCGAAUGGGACCCA

In the data set the parent is B1. Put plainly: self-cleavage, relative activity (ratio to wild type); higher = more cleavage; co-transcriptional.
Regarding C62G G81C, the self-cleavage is 0.208.

As to G31U G38A, the self-cleavage was determined as 0.109.

Regarding C33A C66G, the self-cleavage was 0.302. In the case of C36A A45U it was 0.0475; in that of G31A G55C, 0.475; in that of C7U C85A, 0.665. Next, C3U G6A: 0.245; A51C C57G: 1.14; G1C G73C: 0.142. Regarding C58G, the self-cleavage was 0.964. In the case of A42C U72A it was 0.266; in that of G11C G67U, 0.323; in that of G52U C61G, 0.927. Next, C3G G10U: 0.193. Turning to C3A A71C, the self-cleavage is 0.105. In the case of U46G G67U it was 0.302; in that of C22U A71C, 0.623.

As to C7G C33U, the self-cleavage was determined as 0. Next, G6A G53U: 0.786; G11C A77C: 0.128. Turning to C48A G53C, the self-cleavage came to 1.2. For the variant G1A C63G, the self-cleavage amounted to 0.249. Next, C22U C66U: 0.604. Next, C22A C36A: 0.0536; U23A C66G: 0.787.

With C26A C32G, the self-cleavage was 0. As for G5A, the self-cleavage came to 0.199. In the case of C21G G80A it was 0.0196. In the case of G38U G52U it was 0.273; in that of C57A C85U, 1.05; in that of G54C A83C, 0.332. Next, U23G A45G: 0.962.

Turning to C18G A78C, the self-cleavage was determined as 0.

C49A C85G: the self-cleavage was 0.762. In the case of U23G C75G it was 0.111. Next, A16U C30G: 0.119. In the case of G2A C84G it was 0.0391. As to G34U A78C, the self-cleavage came to 0.0369. Next, G2U G25U: 0.0449. Next, G17U G76C: 0.751; A8G C19G: 0.0594; U60A C62G: 0.997. In the case of C15G A43G it was 0.237. On to U9G A78U, for which the self-cleavage amounted to 0.0692. Consider C48A A83U, for which the self-cleavage turned out to be 0.465. For C4G U47A, the self-cleavage stood at 0.346. Next, C21A C48G: 0.122; C33U A83C: 0.242.

On to C30U C63A, for which the self-cleavage came out at 0.466.

With C57U G73C, the self-cleavage was found to be 0.748.

A16U G67A: the self-cleavage is 0.988.

G5C C44A: the self-cleavage worked out at 0. Consider A71G A78U, for which the self-cleavage is 0.229. With G35A G54A, the self-cleavage stood at 0.349.

Regarding A70U U79G, the self-cleavage came out at 0.617. Turning to G29C A78G, the self-cleavage turned out to be 0. Next, U69C A71C: 0.475; G2U G73U: 0.0361; G11C C26G: 0.95. Next, C15G C63U: 0.394. In the case of G52A U69G it was 0.955. As to U9C G53C, the self-cleavage came out at 1.15. Next, G6A G68A: 0.704. Next, C33A A70G: 0.198; G5C C26U: 0.489; G25A C62U: 0.182.

Turning to U37C A42U, the self-cleavage was 0.295. As to C4A C57G, the self-cleavage is 0.277. As to A71U A87G, the self-cleavage worked out at 0.831.

Consider U27A G54A, for which the self-cleavage stood at 0.961. In the case of C26A G82A it was 0.721; in that of G38U C84A, 0.174.

In the case of G39C G50A, the self-cleavage is 0.246. In the case of C36G G76U it was 0.277. As for G67C C75G, the self-cleavage is 0.0475. In the case of A8C C44U it was 0.199. Next, C14G G38C: 0.142; G31U A70C: 0.161; C36U A42G: 0.122. Next, C13U G35C: 0.166; C19G U72G: 0; G11A C57A: 0.45. Regarding G10U C33A, the self-cleavage stood at 0.113.

Regarding G11A A16U, the self-cleavage is 0.723. In the case of G25U A77C it was 0.0504; in that of A56G G67U, 0.997. Next, G29U U79A: 0.0386; G6U U65C: 0.289; U27A C44A: 0.369.

Regarding G53C C57G, the self-cleavage turned out to be 1.14. Next, G76U A78G: 1.34; C30A C64A: 0.536; C30A C64U: 0.554.

On to G31C C41G, for which the self-cleavage was 0.269. In the case of A77U C86U it was 0.729. In the case of C3A C26A it was 0.795; in that of G17U U72G, 0. In the case of G5U G53C it was 0.489; in that of G34C U65G, 0.208; in that of G67C A87U, 0.858. Consider C22U C61G, for which the self-cleavage amounted to 0.545.

As to A56U U60C, the self-cleavage came out at 1.13. For C18U G50U, the self-cleavage came to 0.639. Next, U9G A56C: 0.462.

Consider G55U G82A, for which the self-cleavage is 0.467. In the case of A51U G59A it was 0.889; in that of C49G C66U, 0.646; in that of G55U G80U, 0.21. Take C66G A71U: the self-cleavage is 1.01. U9C G52U: the self-cleavage is 1.06. Next, A16G G54C: 1.08; A16G G81U: 0.489. In the case of C22U A87U it was 0.644; in that of U9G G82C, 0.646. Next, C58A G82C: 0.17; G67U A87U: 0.898. As to C48A A78U, the self-cleavage was determined as 0.242. In the case of G1U C44U, the self-cleavage came to 0.252. Next, G54U: 0.98; U37G G74A: 0.229; A8U C61U: 0.739. Next, C4U C66G: 0.875; G74U U79G: 0.199; C3A G73A: 0.152.

As to G5C C58U, the self-cleavage worked out at 0.293.

Turning to A8G C33U, the self-cleavage is 0.751.

For G53A C84A, the self-cleavage was 0.888. In the case of C3A C66U it was 0.549; in that of G59C G74U, 0.531; in that of A45U G68C, 0.706.

For G50U C84A, the self-cleavage is 0.974. In the case of G34U C62A it was 0.0831; in that of C41A G67U, 0.739.

On to C49G G74U, for which the self-cleavage was found to be 0.219. In the case of U46A G80A it was 0.147; in that of U27G U72C, 0.32; in that of G2A C36G, 0.0764. Regarding A45G G73A, the self-cleavage was 0.966.

As for C33G A45U, the self-cleavage is 0.185.

Turning to U72G U79C, the self-cleavage was 0.297.

Take C13U C57U: the self-cleavage came out at 0.853. In the case of A70U A87C it was 0.98; in that of G11C A16G, 0.277. With U60G G74A, the self-cleavage worked out at 0.227.

In the case of G10A C48U, the self-cleavage amounted to 0.895.

Consider G34U G38A, for which the self-cleavage was 0.0702. Next, U23G G80U: 0.129; G50A C62G: 0.219; U9G C14U: 1.08. In the case of C30U U69G it was 0.554; in that of U12A U69G, 0.795; in that of A8U G17A, 0.665. Next, G2A U23G: 0.0886; C33A G59A: 0.343; C14G U79G: 0. On to G1A G29U, for which the self-cleavage amounted to 0.0639. In the case of G28A C61A it was 0.0791; in that of A51G U72G, 0.615; in that of U20G C22G, 0.266. Next, C19G C84U: 0.0504; G55C G82C: 0.277; G5A C19G: 0.0898.

As for G35A C62A, the self-cleavage came out at 0.526.

Turning to U20G A83G, the self-cleavage came out at 0.16. Next, C30U U46A: 0.369; U46C U65C: 1.2; U27A G68C: 0.688.
